{"source": "patent US20190167709A1", "molecular_target": "CD20 (B-cell surface antigen CD20 on human Burkitt's B-cell non-Hodgkin's lymphoma Raji cells) (human) (UniProt P11836)", "sequence (P11836 whole entry, the tested form may be a part)": "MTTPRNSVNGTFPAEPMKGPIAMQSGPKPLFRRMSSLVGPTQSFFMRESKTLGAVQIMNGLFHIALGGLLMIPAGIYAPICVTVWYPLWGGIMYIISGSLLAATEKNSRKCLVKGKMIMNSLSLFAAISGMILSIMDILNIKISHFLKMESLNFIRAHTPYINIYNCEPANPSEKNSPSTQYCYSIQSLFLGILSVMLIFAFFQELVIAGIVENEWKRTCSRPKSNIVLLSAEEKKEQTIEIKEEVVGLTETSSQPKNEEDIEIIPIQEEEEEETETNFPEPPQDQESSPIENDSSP", "assay": "cell-based or functional assay", "data": [{"substance": "Fab′-MORF1 conjugate (Fab′ fragment of the mouse anti-human CD20 IgG2a mAb 1F5 tethered to the 3′ end of morpholino MORF1 via a thioether bond)", "values": [{"measurement": "apoptosis induction, fold over untreated, Raji B-cells; 5 µM Fab′-MORF1 + P-MORF2/v3 (fold compared to untreated)", "value": 7}, {"measurement": "apoptosis of Raji B-cells, P-MORF2/v10 against P-MORF2/v3 (0.5 µM Fab′, MORF1:MORF2 = 1:1 or 1:10) (fold against P-MORF2/v3)", "value": 2}, {"measurement": "apoptotic cells, annexin V/PI staining, Raji B-cells; 1 µM Fab′-MORF1 and equimolar P-MORF2/v3", "value": 40, "unit": "%"}, {"measurement": "apoptotic cells, fold over untreated, annexin V/PI staining, Raji B-cells; 1 µM Fab′-MORF1 and equimolar P-MORF2/v3 (fold compared to untreated)", "value": "> 4"}, {"measurement": "apoptotic index (%), Annexin V/PI binding assay, Raji B-cells, 48 h; consecutive Fab′-MORF1 then Copolymer-MORF2, 0.5 µM, valence = 10, MORF1:MORF2 1:1", "value": 50, "unit": "%"}, {"measurement": "apoptotic index (%), Annexin V/PI binding assay, Raji B-cells, 48 h; consecutive Fab′-MORF1 then Copolymer-MORF2, 1 µM, valence = 3, MORF1:MORF2 1:1", "value": 37, "unit": "%"}]}]}
